Test results published in patent publication US20180371086A1 (Gilead, published 2018).

Experiments:
Assay in all cases: cell-based or functional assay
[1] = molecular target: HIV-1 Env of subtype B isolate 93HT593 (HIV-1)
[2] = molecular target: HIV-1 Env of subtype B isolate 92US712 (HIV-1)
[3] = molecular target: HIV-1 Env of the lab adapted HIV-1 BaL strain (HIV-1)
[4] = molecular target: HIV-1 Env of subtype B isolate 92US727 (HIV-1)
[5] = molecular target: HIV-1 Env of subtype B isolate 92US657 (HIV-1)
[6] = molecular target: HIV-1 Env of subtype B isolate MGRM-B-136 (HIV-1)
[7] = molecular target: HIV-1 Env of subtype B isolate MGRM-B-115 (HIV-1)
[8] = molecular target: HIV-1 Env of subtype B isolate MGRM-B-111 (HIV-1)
[9] = molecular target: HIV-1 Env of subtype B isolate MGRM-B-110 (HIV-1)
[10] = molecular target: HIV-1 Env of subtype B isolate MGRM-B-112 (HIV-1)
[11] = molecular target: HIV-1 Env of subtype B isolate MGRM-B-118 (HIV-1)
[12] = molecular target: HIV-1 Env of subtype B isolate MGRM-B-105 (HIV-1)
[13] = molecular target: HIV-1 Env of subtype B isolate MGRM-B-106 (HIV-1)
[14] = molecular target: HIV-1 Env of subtype B isolate MGRM-B-132 (HIV-1)
[15] = molecular target: HIV-1 Env of subtype B virus 15-124987 (HIV-1)
[16] = molecular target: HIV-1 Env of subtype B virus 15-124904 (HIV-1)
[17] = molecular target: HIV-1 Env of subtype B virus 15-124963 (HIV-1)
[18] = molecular target: HIV-1 Env of subtype B virus 15-124914 (HIV-1)
[19] = molecular target: HIV-1 Env of subtype B virus 15-124962 (HIV-1)
[20] = molecular target: HIV-1 Env of subtype B virus 15-124918 (HIV-1)
[21] = molecular target: HIV-1 Env of subtype B virus 15-124970 (HIV-1)
[22] = molecular target: HIV-1 Env of subtype B virus 15-124950 (HIV-1)
[23] = molecular target: HIV-1 Env of subtype B virus 15-124906 (HIV-1)
[24] = molecular target: HIV-1 Env of subtype B virus 15-124975 (HIV-1)
[25] = molecular target: HIV-1 Env of subtype B virus 15-101608 (HIV-1)
[26] = molecular target: HIV-1 Env of subtype B virus 15-124986 (HIV-1)
[27] = molecular target: HIV-1 Env of subtype B virus 15-102514 (HIV-1)
[28] = molecular target: HIV-1 Env of subtype B virus 15-101757 (HIV-1)
[29] = molecular target: HIV-1 Env of subtype B virus 15-124934 (HIV-1)
[30] = molecular target: HIV-1 Env of subtype B virus 15-124964 (HIV-1)

B1: PGT121.60 hIgG1/hLambda (antibody, V domains shown)
VH: QMQLQESGPGLVKPSETLSLTCSVSGASISDSYWSWIRRSPGKGLEWIGYVHKSGDTNYNPSLKSRVHLSLDTSKNQVSLSLTGVTAADSGKYYCARTLHGRRIYGIVAFNEWFTYFYMDVWGTGTQVTVSS
VL: SDISVAPGETARISCGEKSLGSRAVQWYQHRAGQAPSLIIYNNQDRPSGIPERFSGSPDSRPGTTATLTITSVEAGDEADYYCHIWDSRVPTKWVFGGGTTLTVLG
- Neutralization potency, IC50 [1]: 0.141 µg/mL
- Neutralization potency, IC50 [2]: 0.008 µg/mL
- Neutralization potency, IC50 [3]: 0.007 µg/mL
- Neutralization potency, IC50 [4]: 0.007 µg/mL
- Neutralization potency, IC50 [5]: 0.062 µg/mL
- Neutralization activity, IC50 [6]: 0.0071 µg/mL
- Neutralization activity, IC50 [7]: 0.141 µg/mL
- Neutralization activity, IC50 [8]: 0.955 µg/mL
- Neutralization activity, IC50 [9]: 0.0113 µg/mL
- Neutralization activity, IC50 [10]: 0.0058 µg/mL
- Neutralization activity, IC50 [11]: 3.31 µg/mL
- Neutralization activity, IC50 [12]: 0.0076 µg/mL
- Neutralization activity, IC50 [13]: 0.001 µg/mL
- Neutralization activity, IC50 [14]: 0.0077 µg/mL
- Neutralization potency, IC50 [15]: 0.0163 µg/mL
- Neutralization potency, IC50 [16]: 0.0121 µg/mL
- Neutralization potency, IC50 [17]: 2.05 µg/mL
- Neutralization potency, IC50 [18]: 0.002 µg/mL
- Neutralization potency, IC50 [19]: 0.0277 µg/mL
- Neutralization potency, IC50 [20]: 0.0018 µg/mL
- Neutralization potency, IC50 [21]: 0.0285 µg/mL
- Neutralization potency, IC50 [22]: 0.0995 µg/mL
- Neutralization potency, IC50 [23]: 0.0103 µg/mL
- Neutralization potency, IC50 [24]: 0.105 µg/mL
- Neutralization potency, IC50 [25]: 1.84 µg/mL
- Neutralization potency, IC50 [26]: 0.0015 µg/mL
- Neutralization potency, IC50 [27]: 0.0128 µg/mL
- Neutralization potency, IC50 [28]: 0.0132 µg/mL
- Neutralization potency, IC50 [29]: 0.797 µg/mL
- Neutralization potency, IC50 [30]: 0.0026 µg/mL
